From publication doi:10.1101/2024.12.22.629684 (bioRxiv, 2024)

Target: T1, Yku80 (S. cerevisiae, UniProt Q04437 1-629)
T1 sequence (looked up): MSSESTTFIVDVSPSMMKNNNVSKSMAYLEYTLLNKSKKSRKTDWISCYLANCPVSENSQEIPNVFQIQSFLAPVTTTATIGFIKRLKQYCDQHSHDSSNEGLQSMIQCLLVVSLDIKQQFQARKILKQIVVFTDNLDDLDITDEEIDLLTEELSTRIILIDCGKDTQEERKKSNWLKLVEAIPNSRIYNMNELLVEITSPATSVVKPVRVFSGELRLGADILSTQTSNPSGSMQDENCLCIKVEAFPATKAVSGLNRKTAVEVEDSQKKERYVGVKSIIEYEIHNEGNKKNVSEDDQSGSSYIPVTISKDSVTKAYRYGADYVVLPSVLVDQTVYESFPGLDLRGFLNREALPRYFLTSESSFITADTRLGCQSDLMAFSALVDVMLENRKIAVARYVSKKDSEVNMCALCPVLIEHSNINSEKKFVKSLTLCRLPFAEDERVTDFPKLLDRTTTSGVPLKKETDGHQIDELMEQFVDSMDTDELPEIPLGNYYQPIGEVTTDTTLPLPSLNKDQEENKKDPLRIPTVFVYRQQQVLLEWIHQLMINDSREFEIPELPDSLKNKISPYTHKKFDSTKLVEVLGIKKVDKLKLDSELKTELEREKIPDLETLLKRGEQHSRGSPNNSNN
Assay: cryo-EM structure

- binding result: binds
B1: Yku70 (natural protein, S. cerevisiae, UniProt P32807 1-602, looked up)
chain: MRSVTNAFGNSGELNDQVDETGYRKFDIHEGILFCIELSETMFKESSDLEYKSPLLEILESLDELMSQLVITRPGTAIGCYFYYCNREDAKEGIYELFPLRDINATFMKKLNDLLEDLSSGRISLYDYFMFQQTGSEKQVRLSVLFTFMLDTFLEEIPGQKQLSNKRVFLFTDIDKPQEAQDIDERARLRRLTIDLFDNKVNFATFFIGYADKPFDNEFYSDILQLGSHTNENTGLDSEFDGPSTKPIDAKYIKSRILRKKEVKRIMFQCPLILDEKTNFIVGVKGYTMYTHEKAGVRYKLVYEHEDIRQEAYSKRKFLNPITGEDVTGKTVKVYPYGDLDINLSDSQDQIVMEAYTQKDAFLKIIGFRSSSKSIHYFNNIDKSSFIVPDEAKYEGSIRTLASLLKILRKKDKIAILWGKLKSNSHPSLYTLSPSSVKDYNEGFYLYRVPFLDEIRKFPSLLSYDDGSEHKLDYDNMKKVTQSIMGYFNLRDGYNPSDFKNPLLQKHYKVLHDYLLQIETTFDENETPNTKKDRMMREDDSLRKLYYIRNKILESEKSEDPIIQRLNKYVKIWNMFYKKFNDDNISIKEEKKPFDKKPKFNI
